The values that follow come from patent US20230226096A1 (Orna Therapeutics, Inc., priority 2020, published 2023).

The labels stand for the following.
B1: Orivirus (nucleic acid, listed as Orivirus sp.)
DNA: GGTCCCAGGCCAATATTCTTCGTAAGGCTTGGTTCCAATTTTCCACCACTCGTGTTTGGGTTCTGGCCTATGGTACCCAGAGGGGCGGTTTGGGGGAATTAACTCCCCCTCCCCTGTGGTCCTATACCACCCCACACCTCTGTGGGCTTTCTTTACTATCTTCTTGTTTTCCGACTTTTAAACACTAGGCAGGCGCGCCTAGTCATACACCGCCCGGCTGGTCTTTCCAGCTCTTGTGGGCGGTGCGCGCTGGTCCATCGTGCCCAGCGACATAGCACCTTGTGGACACCTCCGAACGCCCTCCCCTGTATGGGGTGGTGCCCAGGGGTTTCAGTGTGGTGACACACTCCCTGGGGCCCGAAAGGCTAGTGTGCAACAGGTGAGGTACAGCCAGCTGCCCCCGTGGCTGGAGGGACCAAGCTTGTGAAGCACACCTCACCTTCTTGGGGGTGGGCTAGTAAGTGGTGAAAGCATAGTGTCCGTGTCGCTGGCCAACACTTTGGGTCAAGTCCAGCCACTCAGTGAGTAGATGCCCAGGAGGTACCCCTAGTGGATCTGACTTGGGGCCTGTTACTTAATGCAGGTTAAAAACTATGAAAGCTGAGTAGTGTAGCCCGGCTGGTGGCTTCTCTTCCTTATTCATTCTATTTTATGGTGACAAACGCAACTGAAGCC
B2: Limnipivirus C (nucleic acid)
DNA: GTTTCTGAGCACTGGTAAGAGCTTAGACAAACGTTTTTAAAATTTATTTTCTCTGCAACTTTTGTTTGTGTTTATTTTTATTTGTTAATTTTGCGCCTAAGCATTTGTTGCGAAGTATTTGATTCATTAGTAATATTACTTATTGTTTATTTAGATGGTATTCAAAGTGGTGGGAGTATCGAACCCAAGCGTCGTATGCTATCTCCTTGAACAATTTTTAATCATTGCGAAGTGATCATTGAAAAGGATAGGTGTTTAAGAACTCAAAGAGTGTTAATAATGTTGGGTGACAGGTGTCCCCATAGAATTTATTAACATGATTTGGACTGGTTATCTAGTAAGAAGAACCATCGAACGCACGAGCGAGCATTGCTTGCGGGGCAGTTACCCTGCGTCGATGTAAGTGTGTACCGGGGGGTGCACATGTTGATTCTTTATGGCCTGATAGGGTGCGTCATTCGCGCCTAGATAATTAGTATAATGCGAATGGAATAAATTTAC
modifications: Limnipivirus C
B3: Halastavi arva (1x mut) (nucleic acid)
DNA: CTTGATTCTAACCTTGCCGTATGGTGCCCTAACGGGTTCATTTAATCATGCGATGAGGGTTGCTATACCGCATCCATTCTAAGGCGATTCAATGCTTCATTTAGGAATTTTGTTGACGATTAAAAGGTACCCCCACAAAAACAAAACCAATCTTACTTGATTTTCGTTTTAACTGACCACTGCGATCCCAAATTTTCGCCTTCTTATCAAAGTATGTTGTGTTCTTTGGGTGTACAACCTGAGAACTTGTCTACAACTACATATTACTCGAGGAAGAAATTCGGTTTAAGCCGTGCCTTCTCACGTTTAGTATATCTATCTGGACACACCTTCTTCATCTTCTAATCCCCATCTAGTCTCCTGATCAGAGACGTCGTTATTAACAAATAACCCCCCTTGTTAATAAGAGACAAAGTACAATCAAGCTAAGTTCTCTTGGAGTTCCTGTAGGAACTTAGCCATTGTGATAGAGTCATAAGTCTATGTGCATAGACAGCTCTAGCTCACCATTTCCTTCCCAACCCATCTTTTCATCAGCTTAACTCTATGAATCCGATGCAAAAACCATTCTAACATCTTATGGTGCTTTCCAAGCCAAATGAGAGCTCACTCTTTTGAGCCGCTATTTAATGGACAATAAACGTTTTATAGTGTACATCATATTGTAAAAACAAA
B4: HAV FH1 (nucleic acid)
DNA: CTTGATACCTCACCGCCGTTTGCCTAGGCTATAGGCTAAATTTCCCTTTCCCTGTCCTTTCCCTATTTCCTTTTGTTTTGTTTGTAAATATTAATTCCTGCAGGTTCAGGGTTCTTTAATCTGTTTCTCTATAAGAACACTCAATTTTCACGCTTTCTGTCTCCTTTCTTCCAGGGCTCTCCCCTTGCCCTAGGCTCTGGCCGTTGCGCCCGGCGGGGTCAACTCCATGATTAGCATGGAGCTGTAGGAGTCTAAATTGGGGACGCAGATGTTTGGGACGTCGCCTTGCAGTGTTAACTTGGCTTTCATGAACCTCTTTGATCTTCCACAAGGGGTAGGCTACGGGTGAAACCTCTTAGGCTAATACTTCTATGAAGAGATGCCTTGGATAGGGTAACAGCGGCGGATATTGGTGAGTTGTTAAGACAAAAACCATTCAACGCCGAAGGACTGGCTCTCATCCAGTGGATGCATTGAGGGAATTGATTGTCAGGGCTGTCTCTAGGTTTAATCTCAGACCTCTCTGTGCTTAGGGCAAACACTATTTGGCCTTAAATGGGATCCTGTGAGAGGGGGTCCCTCCATTGACAGCTGGACTGTTCTTTGGGGCCTTATGTGGTGTTTGCCTCTGAGGTACTCAGGGGCATTTAGGTTTTTCCTCATTCTTAAACAATA
modifications: Hepatovirus A
B5: Parechovirus F (nucleic acid)
DNA: GGTCGGGGAGATGTGTTCATGATCGGTTAACACCATCATGGATCATCTCTCCCCGACCTCTTTTTGACCCAGCTATGGGTTAAATAGTACTTTTCTTTTCTCTTTTGCTTTCTTTTGTGTTTTGTTTGTTTTGCAACATATAACAAGCATTTTATCAGTATTAGTGTCTGCAACTGTATAACAAGCAAGGTGGAGCAATCATGCGAGTATATCTCAATTGAATTGTGACACACAAGTGTGCACTATGTGGAATAAATGCCATTTTGGCCAAACCTGGTTAGCCAGACCAGTAGTAGGACAATTTGGCACCCTTAGTGGGCGCGACCTAGATGCTAGGGATGAGCAAACCTATTTCCCCTGAGTACAGGGGCTCTCCTTCACCTCTACATTTTGGACCTCTTTTTGAGTATCCTCGATAGAAGGTGAAGTGACGGTGTACCGGATGGTTAATTGATCTCATTGCTGGGTGACAGCCCGCTAGGACCAGGCAGCATCTTTGTATGGACCTGTACATGTAAC
modifications: Parechovirus F
B6: HAV HM175 (nucleic acid)
DNA: CGCCGTTTGCCTAGGCTATAGGCTAAATTTTCCCTTTCCCTTTTCCCTTTCCTATTCCCTTTGTTTTGCTTGTAAATATTGATTTGTAAATATTGATTCCTGCAGGTTCAGGGTTCTTAAATCTGTTTCTCTATAAGAACACTCATTTCACGCTTTCTGTCTTCTTTCTTCCAGGGCTCTCCCCTTGCCCTAGGCTCTGGCCGTTGCGCCCGGCGGGGTCAACTCCATGATTAGCATGGAGCTGTAGGAGTCTAAATTGGGGACACAGATGTTTGGAACGTCACCTTGCAGTGTTAACTTGGCTTTCATGAATCTCTTTGATCTTCCACAAGGGGTAGGCTACGGGTGAAACCTCTTAGGCTAATACTTCTATGAAGAGATGCCTTGGATAGGGTAACAGCGGCGGATATTGGTGAGTTGTTAAGACAAAAACCATTCAACGCCGGAGGACTGACTCTCATCCAGTGGATGCATTGAGTGGATTGACTGTCGGGGCTGTCTTTAGGCTTAATTCCAGACCTCTCTGTGCTTGGGGCAAACATCATTTGGCCTTAAATGGGATTCTGTGAGAGGGGATCCCTCCATTGCCAGCTGGACTGTTCTTTGGGGCCTTATGTGGTGTTTGCCGCTGAGGTACTCAGGGGCATTTAGGTTTTTCCTCATTCTTAAATAATA
modifications: Hepatovirus A
B7: Ljungan Virus 87-012 (nucleic acid)
DNA: CTCATTGCCCACACCTGGTTGGTTCCCAGGTTCATACAATAACCATCAATAAACTTTTAACATCTAAGATAGTATTATCCCATACTAGACTGGACGAAGCCGCTTGGAATAAGTCTAGTCTTATCTTGTATGTGTCCTGCACTGAACTTGTTTCTGTCTCTGGAGTGCTCTACACTTCAGTAGGGGCTGTACCCGGGCGGTCCCACTCTTCACAGGAATCTGCACAGGTGGCTTTCACCTCTGGACAGTGCATTCCACACCCGCTCCACGGTAGAAGATGATGTGTGTCTTTGCTTGTGAAAAGCTTGTGAAAATCGTGTGTAGGCGTAGCGGCTACTTGAGTGCCAGCGGATTACCCCTAGTGGTAACACTAGCCTCTGGGCCCAAAAGGCATGTCATTTGACCACTCAGGTACACAACCCCAGTGATGCACACGCTTAGTAATGGCTTAGTAACAAACATTGATTGATCATTTGAAAGCTGTTAGGAGGTTTAGGTATGACGGGCTGAAGGATGCCCTGAAGGTACCCATAGGTAACCTTAAGCGACTATGGATCTGATCAGGGGCCCACCATGTAACACATGGGTAGAAGTCTTCGGACCTTGGGTTAAAAAACGTCTAGGCCCGCCCCCCACAGGGATGTGGGGTTTCCCTTATAACCCCAATATTGTATA
B8: Parechovirus C (nucleic acid)
DNA: CGGTCATCCCCCTTTCCCCACAGCCGGTGTGGGTTCTAATCGGCTCCTACTAAACACCTAAGCATCACTGCGCCTCTATCTCTCCTATCCACAGGTCTAAGACGCTTGGAATAAGACATGTGGGTGCAATAGGAAGATTAGCTAGTCCAATCTCTCCTTCCAGCTACGCTTCTCCCTTCGATGAGCGTAGGGGGGGCCCCCACCTCCCTCATCTCTGGATAGGGCTCTTGCTACGGGGCTTTCCCGTCTGGACCAGCAGGCCCACTGGTGCGCTTCCATTCAAGTTTAGTGTGCATTACTGTCTGAAATATTGCTTTGCTAGGATCTAGTGTAGCGACCTGCATATTGCCAGCGGACTTCCCCACATGGTAACATGTGCCTCTGGGCCCAAAAGGCATGTCTTTGACCGTATGCAGTACAACCCCAGTATAGGTCCTTTCTATGGCAGTATGGATCTCAGTGATGAGTCTATACAGAATATGGAAGTGGTTCGGATATGTCAGCCCGAAGGATGCCCAGAAGGTACCCGCAGATAACCTTAAGAGACTGTGGATCTGATCTGGGGCCCACCACCTTCGGGTGGGTAGAAGCTAACCATGCCTTGGGTTAAAAAACGTCTAAGGGCTGACCAGACCCGGGGGATCCGGGTTTTCCCTATCTTGACCTACTCTAATC
modifications: Parechovirus C
B9: Parechovirus D (nucleic acid)
DNA: ACATGGGGCAGGTGTGCTGTGCCAAGAGCAACACTACGGTGGCCGAGCCGATGGTTCGTCACCACGTAGTAGGACTCCGTAGTGCTTGGTTACGGCGGACGTAAGTCAGTTGAGTGATGTCTAAGTGGCAAACCATGAGTACATGGTAACCTTGTGTGGACTCGCGGGACGGAATTTCCTATCCCATTGACTCCTTGTAGCAAGGTGGGTATACCCAACCACAATGGCAGCACCCTGGGTGGGAACCCAGGGGCCTGGATTAGTATCCAGTCACACAGCCTGATAGGGTGGCGGCTCAGCCACTGACCAGCGTCTCTAAATAATTGTGAGCTGTTCATGCACC
modifications: Parechovirus D

The subject of the series is HEK293 cells. The series is classed as cell-based, human. Particulars: luminescence from secreted Gluc in supernatant 24 hours after transfection of HEK293 cells; circular RNA encoding Gluc with the named IRES (UTR truncated to 675 nt).
As for B1, the Expression was 6.09E+05.

B2 showed an Expression of 1.35E+05.

For B3, the Expression is given as 9.46E+04.

With B4, the Expression is listed as 1.24E+05.

Molecule B5 yielded an Expression of 6.56E+05.

As to B6, the Expression was found to be 4.96E+05.

B7 gave an Expression of 2.00E+06.

B8: the Expression turned out to be 1.24E+06.

In turn, B9 returned an Expression of 3.10E+05.
